The results in this text go back to patent US20040208877A1.

The target of experiment [1] is PSGL-1 (P-Selectin Glycoprotein Ligand-1) (human) (UniProt Q14242). Put plainly: FACS competition on ML2 cells, 200 ng KPL-1, competitor IgG Y1-PE.
The target is the same in experiment [2]. Description: FACS, PE-labeled KPL-1 on ML2 cells. (In general: A flow cytometer gives signals particle by particle.)

Sequence of UniProt Q14242 (Q14242 42-412): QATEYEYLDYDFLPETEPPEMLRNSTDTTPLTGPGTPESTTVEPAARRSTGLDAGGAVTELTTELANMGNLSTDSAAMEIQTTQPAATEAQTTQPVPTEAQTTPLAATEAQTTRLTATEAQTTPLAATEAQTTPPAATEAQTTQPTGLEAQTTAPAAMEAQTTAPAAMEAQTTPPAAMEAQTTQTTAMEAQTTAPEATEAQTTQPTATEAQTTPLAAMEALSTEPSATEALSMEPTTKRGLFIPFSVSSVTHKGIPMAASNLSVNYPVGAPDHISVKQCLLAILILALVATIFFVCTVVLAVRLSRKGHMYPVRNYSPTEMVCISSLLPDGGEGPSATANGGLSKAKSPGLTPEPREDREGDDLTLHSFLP

Consider “KPL-1 (commercially available murine monoclonal antibody against PSGL1)”, for which, in experiment [1], the Median (Geo mean) of IgG Y1-PE binding worked out at 2 geo mean and the Percent Inhibition came out at 100%. Further, in experiment [2], the Median (Geo mean) was determined as 700 geo mean.
